Measured values as given in patent publication US9926355 (NEW YORK UNIVERSITY, dated 2018).
Each block holds one binder with its values, some of them ahead of it.

Experiments:
[1] = target: T1, ligand-binding domain of human FGFR1c (D142 to R365) (human, UniProt P11362 142-365); test: SPR; FGF23 C-tail peptide immobilized, increasing concentrations of FGFR1c ligand-binding domain
T1 construct: range 142-365
T1 sequence (looked up): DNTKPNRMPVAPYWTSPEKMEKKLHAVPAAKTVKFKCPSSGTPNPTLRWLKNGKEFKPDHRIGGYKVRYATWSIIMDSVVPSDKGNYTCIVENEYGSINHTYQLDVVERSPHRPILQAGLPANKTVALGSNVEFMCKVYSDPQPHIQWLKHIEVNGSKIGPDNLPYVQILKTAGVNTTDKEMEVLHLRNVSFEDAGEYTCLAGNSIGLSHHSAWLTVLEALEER
Source text: (§1) FIGS. 10A-10D show overlays of SPR sensorgrams illustrating binding of FGFR1c to FGF2 (FIG. 10A), FGF19 (FIG. 10B), FGF21 (FIG. 10C), and FGF23 (FIG. 10D), and fitted saturation binding curves. Increasing concentrations of FGFR1c ligand-binding domain were passed over a biosensor chip containing immobilized FGF2, FGF19, FGF21, or FGF23. […] Increasing concentrations of αKlotho-FGFR1c complex were passed over a biosensor chip containing immobilized FGF23. […] FGF2^3C-tail was immobilized on a biosensor chip and increasing concentrations of FGFR1c ligand-binding domain were passed over the chip. Dissociation constants (K_Ds) given in FIGS. 10A-10E were derived from the saturation binding curves.
(§2) Example 2—Analysis of FGF-Heparin and FGF-FGFR-α/Klotho Interactions by Surface Plasmon Resonance Spectroscopy Surface plasmon resonance (SPR) experiments were performed on a Biacore 2000 instrument (Biacore AB), and the interactions were studied at 25° C. in HBS-EP buffer (10 mM HEPES-NaOH, pH 7.4, 150 mM NaCl, 3 mM EDTA, 0.005% (v/v) polysorbate 20). To study endocrine FGF-heparin interactions, a heparin chip was prepared by immobilizing biotinylated heparin (Sigma-Aldrich) on flow channels of a research-grade streptavidin chip (Biacore AB). The coupling density was ~5 fmol mm^-2 of flow channel. […]

[2] = target: T1, ligand-binding domain of human FGFR1c …; test: SPR; FGF23 immobilized, increasing concentrations of FGFR1c ligand-binding domain; KD only in the figure
Source text: as §1, §2

[3] = target: T1, ligand-binding domain of human FGFR1c …; test: SPR; immobilized FGF21, FGFR1c ligand-binding domain in solution
Source text: as §1, §2

binding result [1]: no binding
B1: N-terminally hexahistidine-tagged C-terminal tail peptide of FGF23 (S180 to I251) (peptide)
peptide: SAEDDSERDPLNVLKPRARMTPAPASCSQELPSAEDNSPMASDPLGVVRGGRVNTHAGGTGPEGCRPFAKFI
notes: also called FGF23^C-tail; not shown: N-terminal hexahistidine tag

binding result [2]: binds
B2: N-terminally hexahistidine-tagged, mature form of human FGF23 (Y25 to I251), R176Q/R179Q (ligand)
chain: YPNASPLLGSSWGGLIHLYTATARNSYHLQIHKNGHVDGAPHQTIYSALMIRSEDAGFVVITGVMSRRYLCMDFRGNIFGSHYFDPENCRFQHQTLENGYDVYHSPQYHFLVSLGRAKRAFLPGMNPPPYSQFLSRRNEIPLIHFNTPIPRQHTQSAEDDSERDPLNVLKPRARMTPAPASCSQELPSAEDNSPMASDPLGVVRGGRVNTHAGGTGPEGCRPFAKFI
notes: also called native FGF23; wild-type FGF23; not shown: N-terminal hexahistidine tag

binding result [3]: binds
B3: N-terminally hexahistidine-tagged, mature form of human FGF21 (H29 to S209) (ligand)
chain: HPIPDSSPLLQFGGQVRQRYLYTDDAQQTEAHLEIREDGTVGGAADQSPESLLQLKALKPGVIQILGVKTSRFLCQRPDGALYGSLHFDPEACSFRELLLEDGYNVYQSEAHGLPLHLPGNKSPHRDPAPRGPARFLPLPGLPPALPEPPGILAPQPPDVGSSDPLSMVGPSQGRSPSYAS
notes: also called native FGF21; not shown: N-terminal hexahistidine tag
